B1: Frey regulator of sperm-oocyte fusion 1 with C-terminal 3xFLAG tag (Frey1-3xFLAG), wild type [murine] / Signal Peptide Peptidase-like 2c, C-terminally myc-tagged (SPPL2c-myc) [murine] (parent)
chain 1: MVLAMLGALYPRAGLSLFLFYLILAGALLRPQPQRSQQSVPEEFSAPLELLQPLSGLVDDYGLRPKHPRPGGPRPLLSQAQQRKRDGPNMADYYYDVNL
chain 2: EYGLVRVVSKNWSKDYCVLYSSDYVNLPRDLHHAPLLSLHDGTKTPWCPDEDSFHQAQDSSPRQRPLHQTTTMVTRGNCSFYAKGWLAQDQGAQGLLIVSRARNQQCSDTISKPQDPSKPWPALTIPVAVLRYTDMLDIVSHTYGDTDVRVAMFAPLEPVTDYNMAIIFILAVGTVAAGGYWAGLMEANKLQRRQAQRGGGLGGHNQQQTVAAERSQRAWEDDDFEDAPMDFTPAMTGAVVTMSCSIMILLYFFYDCFVYVMIGIFSLGASTGLYSCLAPILCHLPLWRYQWVLPGQRVSVTWPLLLLAGLCAMVTVLWVIHRNEDHWAWLLQDTLGVAYCLFVLRRVRLPTFKNCTLFLLALLAFDVFFVFITPLFTKTGESIMVEVASGPADSSSHERLPMVLKVPRLSFSALTLCNQPFSILGFGDIVVPGFLVAYCHRFDMQVQSRQVYYMACTVAYAVGLLVTFVAMILMQMGQPALLYLVSSTLLTSLAVATCRQEFTLFWTGQGRAKIPAEPVAQPCIASAVGSKMKLEDAKDSRTTNRFEQAVDGESGDLESSTGDDMAEMVTLSEDEATSPEGHSESSEGWSDTNLDPNELPSGSPMALEAMLIPLIQPIPHPSELGHIRTQSRVHDSSLPWMGLHKRKGLKVKKSMSAQAPL

Variants of: B1
Assay: co-immunoprecipitation (anti-FLAG IP, Western blot quantification)
Conditions: with Signal Peptide Peptidase-like 2c, transiently transfected HEK cells, n = 6, parent: 100, read off a plot

| percent of parent (% of Frey1 Wt) | Variant |
| --- | --- |
| 17 | chain 1 MVLAMLGALYLRALLTLFLFYLILAAALLRPQPQRSQQSVPEEFSAPLELLQPLSGLVDDYGLRPKHPRPGGPRPLLSQAQQRKRDGPNMADYYYDVNL [chain 1 P11L G14L S16T G26A] |

Variants of: B1
Assay: competition co-immunoprecipitation pulling on Frey1 (anti-FLAG IP, Western blot quantification)
Conditions: with Signal Peptide Peptidase-like 2c, co-expression of HA-HO-1 as competitor, value is relative to the same Frey1 variant without HA-HO-1 (EV = 100), transiently transfected HEK cells, n = 3, parent: 100, read off a plot

| co-precipitated SPPL2c, percent of no-competitor control | Variant |
| --- | --- |
| 59 % of EV | chain 1 MVLAMLGALYLRALLTLFLFYLILAAALLRPQPQRSQQSVPEEFSAPLELLQPLSGLVDDYGLRPKHPRPGGPRPLLSQAQQRKRDGPNMADYYYDVNL [chain 1 P11L G14L S16T G26A] |

From article PMC10234869
